Results on three variants are retold here after IntAct's records for PubMed 16367866.

The chains are these.
B1: Translocated intimin receptor Tir (Escherichia coli O127:H6 (strain E2348/69 / EPEC)), B7UM99 (parent)
chain: MPIGNLGNNVNGNHLIPPAPPLPSQTDGAARGGTGHLISSTGALGSRSLFSPLRNSMADSVDSRDIPGLPTNPSRLAAATSETCLLGGFEVLHDKGPLDILNTQIGPSAFRVEVQADGTHAAIGEKNGLEVSVTLSPQEWSSLQSIDTEGKNRFVFTGGRGGSGHPMVTVASDIAEARTKILAKLDPDNHGGRQPKDVDTRSVGVGSASGIDDGVVSETHTSTTNSSVRSDPKFWVSVGAIAAGLAGLAATGIAQALALTPEPDDPTTTDPDQAANAAESATKDQLTQEAFKNPENQKVNIDANGNAIPSGELKDDIVEQIAQQAKEAGEVARQQAVESNAQAQQRYEDQHARRQEELQLSSGIGYGLSSALIVAGGIGAGVTTALHRRNQPAEQTTTTTTHTVVQQQTGGNTPAQGGTDATRAEDASLNRRDSQGSVASTHWSDSSSEVVNPYAEVGGARNSLSAHQPEEHIYDEVAADPGYSVIQNFSGSGPVTGRLIGTPGQGIQSTYALLANSGGLRLGMGGLTSGGESAVSSVNAAPTPGPVRFV
partner: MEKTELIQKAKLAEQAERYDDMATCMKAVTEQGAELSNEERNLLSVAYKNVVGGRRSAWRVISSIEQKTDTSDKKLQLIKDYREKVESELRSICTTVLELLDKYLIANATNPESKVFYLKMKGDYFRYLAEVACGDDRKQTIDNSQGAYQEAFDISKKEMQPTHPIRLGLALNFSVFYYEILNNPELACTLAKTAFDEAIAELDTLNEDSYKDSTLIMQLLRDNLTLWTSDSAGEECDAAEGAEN

Variants of B1 are the subject of the assay. The note with it: with 1433t_human YWHAQ.
Consider S465A, for which the “effect of a mutation on the interaction” value was “with no effect”.

S51A: the “effect of a mutation on the interaction” value is “with no effect”. For S434A the value was “with no effect”.
